Reference: article PMC4108472, “Characterization of a Novel BCHE “Silent” Allele: Point Mutation (p.Val204Asp) Causes Loss of Activity and Prolonged Apnea with Suxamethonium” (PLoS ONE, 2014)
Several values for one entry are separate records, joined by “and”; a condition that tells them apart may be missing. Equal entries are not always repeated.

Molecular target: the molecule itself
Test: native gel or EMSA; nondenaturing gradient gel (4–30%) of plasma samples (5 µL/lane), bands stained for BChE activity with BTC as the substrate

B1: Butyrylcholinesterase (usual, wild-type) of human plasma (enzyme, human (endogenous in plasma), UniProt P06276 29-602, looked up)
chain: EDDIIIATKNGKVRGMNLTVFGGTVTAFLGIPYAQPPLGRLRFKKPQSLTKWSDIWNATKYANSCCQNIDQSFPGFHGSEMWNPNTDLSEDCLYLNVWIPAPKPKNATVLIWIYGGGFQTGTSSLHVYDGKFLARVERVIVVSMNYRVGALGFLALPGNPEAPGNMGLFDQQLALQWVQKNIAAFGGNPKSVTLFGESAGAASVSLHLLSPGSHSLFTRAILQSGSFNAPWAVTSLYEARNRTLNLAKLTGCSRENETEIIKCLRNKDPQEILLNEAFVVPYGTPLSVNFGPTVDGDFLTDMPDILLELGQFKKTQILVGVNKDEGTAFLVYGAPGFSKDNNSIITRKEFQEGLKIFFPGVSEFGKESILFHYTDWVDDQRPENYREALGDVVGDYNFICPALEFTKKFSEWGNNAFFYYFEHRSSKLPWPEWMGVMHGYEIEFVFGLPLERRDNYTKAEEILSRSIVKRWANFAKYGNPNETQNNSTSWPVFKSTEQKYLTLNTESTRIMTKLRAQQCRFWTSFFPKVLEMTGNIDEAEWEWKAGFHRWNNYMMDWKNQFNDYTSKKESCVGL
notes: Butyrylcholinesterase, human, Swissprot P06276, as it circulates in plasma; Subunit of the plasma enzyme; Plasma of the heterozygous family members also holds variant subunits (p.Val204Asp; p.Asp70Gly-p.Ala539Thr); also called BChE; pseudocholinesterase; source: endogenous, human plasma (genotype UU control and family members' plasma)
- stoichiometry N: 4 and 2
